Data as given in US20260035432A1 (PRECIGEN, published 2026).

Key:
[1] = biological target: T1, Extracellular domain (ECD) of ROR1 fused to human Fc region (UniProt Q01973 30-406, limits assumed); assay: SPR, Biacore 3000; ROR1 ECD-human Fc on CM5 chip, antibody in solution
T1 construct: extracellular domain; also called ROR1-Fc; ROR1-FC; not shown: human Fc region
Protocol: Different concentrations of humanized antibodies were injected in solution phase and data was analyzed using BIAevaluation to calculate Kd of the antibodies.

ROR1-His = biological target: T2, ROR1-His (UniProt Q01973 30-403, limits assumed); assay: ROR1-His affinity of the construct's binding domain; method not given
T2 construct: The construct is described nowhere; not shown: His tag
T2 sequence (Q01973 30-403 limits assumed): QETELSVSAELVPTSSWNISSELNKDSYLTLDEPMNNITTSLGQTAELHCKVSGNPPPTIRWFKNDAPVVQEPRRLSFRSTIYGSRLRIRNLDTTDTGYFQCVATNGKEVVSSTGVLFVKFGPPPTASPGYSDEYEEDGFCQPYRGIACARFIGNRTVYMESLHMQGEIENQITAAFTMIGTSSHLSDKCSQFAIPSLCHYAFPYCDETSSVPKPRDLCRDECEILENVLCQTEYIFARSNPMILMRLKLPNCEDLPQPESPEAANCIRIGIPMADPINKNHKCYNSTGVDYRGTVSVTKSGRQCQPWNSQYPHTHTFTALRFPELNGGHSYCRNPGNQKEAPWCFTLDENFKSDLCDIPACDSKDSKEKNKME

[2] = biological target: Extracellular domain (ECD) of ROR1 fused to human Fc region (UniProt Q01973); assay: SPR, Biacore 3000; ROR1 ECD-human Fc on CM5 chip, antibody in solution
Sequence of Extracellular domain (ECD) of ROR1 fused to human Fc region (UniProt Q01973) (Q01973 30-406 limits assumed): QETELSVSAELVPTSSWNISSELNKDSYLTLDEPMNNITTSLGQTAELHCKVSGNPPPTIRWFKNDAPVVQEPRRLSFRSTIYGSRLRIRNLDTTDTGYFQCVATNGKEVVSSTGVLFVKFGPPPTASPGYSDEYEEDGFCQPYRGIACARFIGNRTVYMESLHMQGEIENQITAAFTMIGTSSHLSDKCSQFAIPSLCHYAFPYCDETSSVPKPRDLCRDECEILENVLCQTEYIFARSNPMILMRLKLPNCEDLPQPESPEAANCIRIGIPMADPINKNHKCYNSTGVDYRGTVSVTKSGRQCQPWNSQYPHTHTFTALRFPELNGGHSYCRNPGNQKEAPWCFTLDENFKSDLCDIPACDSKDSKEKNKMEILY

[3] = biological target: Extracellular domain (ECD) of ROR1 fused to human Fc region (UniProt Q01973); assay: ROR1-Fc affinity of the construct's binding domain; method not given

T1 sequence (Q01973 30-406 limits assumed): as above

Row | Binder | Kd [1] | Kd (ROR1-His) | Kd [2] | Kd [3]
1 | Hum ROR1_07VH_(G4S)3x_VL_16 (antibody, mouse IgG1, V domains shown, The name reads as an scFv with a (G4S)3 linker; The method text says variable regions were fused to mouse constant regions (chimeric mouse IgG1); VH/VL are tied by the numbers in the name) VH: EVQLVESGGGLVQPGGSLRLSCAASGFTFSSYAIIWVRQAPGKGLEWVARISRGGTTRYADSVKGRFTISADTSKETAYLQMNSLRAEDTAVYYCGRYDYDGYYAMDYWGQGTLVTVSS VL: DIQMTQSPSSLSASVGDRVTITCKASPDINSYLNWYQQKPGKAPKVLIYRANRLVDGVPSRFSGSGSGTDYTLTISSLQPEDFATYYCLQYDEFPYTFGQGTKVEIK | 4.08 nM |  |  | 
2 | Clone 16 (antibody, V domains shown, Variable regions fused to mouse constant regions (chimeric mouse IgG1 mAb) for SPR; also called hROR1 VH_16 / hROR1 VL_16) VH: EVQLVESGGGLVQPGGSLRLSCAASGFTFSSYAMSWVRQAPGKGLEWVASISRGGTTYYDPKFQDRATISADNSKNTAYLQMNSLRAEDTAVYYCGRYDYDGYYAMDYWGQGTLVTVSS VL: DIQMTQSPSSLSASVGDRVTITCKASPDINSYLNWYQQKPGKAPKVLIYRANRLVDGVPSRFSGSGSGTDYTLTISSLQPEDFATYYCLQYDEFPYTFGQGTKVEIK | 3.03 nM |  |  | 
3 | Clone 14 (antibody, V domains shown, Variable regions fused to mouse constant regions (chimeric mouse IgG1 mAb) for SPR; also called hROR1 VH_14 / hROR1 VL_14) VH: EVQLVESGGGLVQPGGSLRLSCATSGFTFSSYAMSWMRQAPGKGLEWVASISRGGTTYYADSVKGRFTISVDKSKNTLYLQMNSLRAEDTAVYYCGRYDYDGYYAMDYWGQGTLVTVSS VL: DIQMTQSPSSLSASVGDRVTITCKASPDINSYLNWYQQKPGKAPKLLIYRANRLVDGVPSRFSGSGSGTDYTLTISSLQPEDFATYYCLQYDEFPYTFGAGTKVEIK |  | 1.45 nM | 1.45 nM | 
4 | Hum ROR1_05VH_(G4S)3x_VL_16 (antibody, mouse IgG1, V domains shown, The name reads as an scFv with a (G4S)3 linker; The method text says variable regions were fused to mouse constant regions (chimeric mouse IgG1); VH/VL are tied by the numbers in the name) VH: EVQLVESGGGLVQPGGSLRLSCAASGFTFSSYAMSWVRQAPGKGLEWVSSISRGGTTYYPDSVKGRFTISRDNSKNTLYLQMNSLRAEDTAVYYCGRYDYDGYYAMDYWGQGTLVTVSS VL: DIQMTQSPSSLSASVGDRVTITCKASPDINSYLNWYQQKPGKAPKVLIYRANRLVDGVPSRFSGSGSGTDYTLTISSLQPEDFATYYCLQYDEFPYTFGQGTKVEIK |  | 0.337 nM | 0.337 nM | 0.273 nM
5 | Clone 05 (antibody, V domains shown, Variable regions fused to mouse constant regions (chimeric mouse IgG1 mAb) for SPR; also called hROR1 VH_05 / hROR1 VL_05) VH: EVQLVESGGGLVQPGGSLRLSCAASGFTFSSYAMSWVRQAPGKGLEWVSSISRGGTTYYPDSVKGRFTISRDNSKNTLYLQMNSLRAEDTAVYYCGRYDYDGYYAMDYWGQGTLVTVSS VL: DIQMTQSPSSLSASVGDRVTITCKASPDINSYLSWYQQKPGKAPKLLIYRANRLVDGVPSRFSGSGSGTDFTLTISSLQPEDIATYYCLQYDEFPYTFGQGTKLEIK |  | 37.4 nM | 35 nM | 35 nM
6 | Clone 18 (antibody, V domains shown, Variable regions fused to mouse constant regions (chimeric mouse IgG1 mAb) for SPR; also called hROR1 VH_18 / hROR1 VL_18) VH: EVQLVESGGGLVQPGGSLRLSCSASGFTFSSYAMSWVRQVPGKGLVWISSISRGGTTYYADSVRGRFIISRDNAKNTLYLEMNNLRGEDTAVYYCARYDYDGYYAMDYWGQGTLVTVSS VL: DIQLTQSPDSLAVSLGERATINCKASPDINSYLSWYQQRPGQPPRLLIHRANRLVDGVPDRFSGSGFGTDFTLTITSLQAEDVAIYYCLQYDEFPYTFGQGTKLEIK | 12.7 nM |  |  | 

Other lines, results leading:

Row | Kd [1] | Kd (ROR1-His) | Kd [2] | Kd [3] | Binder
7 | 4.52 nM |  |  |  | Hum_design_14_variant5 (antibody, V domains shown, Variable regions fused to mouse constant regions (chimeric mouse IgG1 mAb) for SPR; also called hROR1 VH_14-5 / hROR1 VL_14-5) VH: EVQLVESGGGLVQPGGSLRLSCATSGFTFSSYAMSWMRKAPGKGLEYVASISRGGTTYYADSVKGRFTISVDKSKNTLYLQMNSLRAEDTAVYYCGRYDYDGYYAMDYWGQGTLVTVSS VL: DIQMTQSPSSLSASVGDRVTITCKASPDINSYLNWYQQKPGKAPKLLIYRANRLVDGVPSRFSGSGSGTDYTLTISSLQPEDFATYYCLQYDEFPYTFGAGTKVEIK
8 |  | 0.209 nM | 0.209 nM | 0.201 nM | Hum ROR1_18VH_(G4S)3x_VL_14 (antibody, mouse IgG1, V domains shown, The name reads as an scFv with a (G4S)3 linker; The method text says variable regions were fused to mouse constant regions (chimeric mouse IgG1); VH/VL are tied by the numbers in the name) VH: EVQLVESGGGLVQPGGSLRLSCSASGFTFSSYAMSWVRQVPGKGLVWISSISRGGTTYYADSVRGRFIISRDNAKNTLYLEMNNLRGEDTAVYYCARYDYDGYYAMDYWGQGTLVTVSS VL: DIQMTQSPSSLSASVGDRVTITCKASPDINSYLNWYQQKPGKAPKLLIYRANRLVDGVPSRFSGSGSGTDYTLTISSLQPEDFATYYCLQYDEFPYTFGAGTKVEIK
9 |  | 1.3 nM | 1.3 nM | 0.959 nM | Hum_design_14_variant3 (antibody, V domains shown, Variable regions fused to mouse constant regions (chimeric mouse IgG1 mAb) for SPR; also called hROR1 VH_14-3 / hROR1 VL_14-3) VH: EVQLVESGGGLVQPGGSLRLSCAASGFTFSSYAMSWVRQAPGKGLEWVASISRGGTTYYADSVKGRFTISRDNSKNTLYLQMNSLRAEDTAVYYCGRYDYDGYYAMDYWGQGTLVTVSS VL: DIQMTQSPSSLSASVGDRVTITCKASPDINSYLNWYQQKPGKAPKLLIYRANRLVDGVPSRFSGSGSGTDFTLTISSLQPEDIATYYCLQYDEFPYTFGGGTKVEIK
10 | 131 nM |  |  |  | Hum ROR1_14VH_(G4S)3x_VL_16 (antibody, mouse IgG1, V domains shown, The name reads as an scFv with a (G4S)3 linker; The method text says variable regions were fused to mouse constant regions (chimeric mouse IgG1); VH/VL are tied by the numbers in the name) VH: EVQLVESGGGLVQPGGSLRLSCATSGFTFSSYAMSWMRQAPGKGLEWVASISRGGTTYYADSVKGRFTISVDKSKNTLYLQMNSLRAEDTAVYYCGRYDYDGYYAMDYWGQGTLVTVSS VL: DIQMTQSPSSLSASVGDRVTITCKASPDINSYLNWYQQKPGKAPKVLIYRANRLVDGVPSRFSGSGSGTDYTLTISSLQPEDFATYYCLQYDEFPYTFGQGTKVEIK
